Laboratory results taken from PMC7186176, “Structural basis of cell-surface signaling by a conserved sigma regulator in Gram-negative bacteria” (The Journal of Biological Chemistry, 2020).

B1: PupR CCSSD (PupR residues 110–324, MBP cleaved) (domain or fragment, Pseudomonas capeferrum)
chain: GAMGQDWRADYHSRIGEQRRLTLADGTQVQLNTDSALNVAFDQQARRLRLVRGEMLITRPALADSRPLWVDTEHGRLESTLAQFNVRLHGQHTQATVYQGSVALQPALHAYPPILLGAGEQASFNQQGLLARQAVAAVAPAWSQGMLVAQGQPLAAFIEDLARYRRGHLACDPALAGLRVSGTFPLENTDKIIAAVAETLQLEVQHFTRYWVTLKPRMA
notes: 4-residue cloning artifact left after TEV cleavage; PupR, inner membrane sigma regulator of Pseudomonas capeferrum (formerly Pseudomonas putida WCS358), periplasmic CCSSD, residues 110-324; 219-residue product with the GAMG artifact; About 90% pure, some MBP contamination; also called native PupR CCSSD; not shown: MBP, N-terminal, cleaved
B2: MBP-tagged PupR CCSSD (PupR residues 110–324) (domain or fragment, Pseudomonas capeferrum, UniProt Q52209 110-324, looked up)
chain: QDWRADYHSRIGEQRRLTLADGTQVQLNTDSALNVAFDQQARRLRLVRGEMLITRPALADSRPLWVDTEHGRLESTLAQFNVRLHGQHTQATVYQGSVALQPALHAYPPILLGAGEQASFNQQGLLARQAVAAVAPAWSQGMLVAQGQPLAAFIEDLARYRRGHLACDPALAGLRVSGTFPLENTDKIIAAVAETLQLEVQHFTRYWVTLKPRMA
notes: PupR, inner membrane sigma regulator of Pseudomonas capeferrum (formerly Pseudomonas putida WCS358), periplasmic CCSSD, residues 110-324; also called complete CCSSD; C-terminal cell-surface signaling domain; source: E. coli BL21(DE3)pLysS, co-expressed with GST-PupB NTSD, clarified lysate (pull-down); not shown: MBP, N-terminal, kept
B3: PupB NTSD (purified) (domain or fragment, Pseudomonas capeferrum, UniProt P38047 49-128, looked up)
chain: AQADFDIPAGPLAPALAHFGQSAHILLSYPTALTEGRSTSGLAGRFDIDQGLAILLAGTGLEASRGANASYSLQASASTG
notes: PupB, outer membrane TonB-dependent transducer of Pseudomonas capeferrum (formerly Pseudomonas putida WCS358), N-terminal signaling domain; also called N-terminal signaling domain of PupB

Columns and labels:
Conditions in all cases: both partners purified
PupB NTSD (purified) [1] = molecular target: B3; assay: SEC-SAXS; inline Superdex 200 Increase 10/300; 25 mM HEPES pH 7.5, 400 mM LiCl, 10% glycerol; 800 μM complex (1:1 mix, 30 min at room temperature) or 400 μM PupR CCSSD alone injected; ambient temperature
PupB NTSD (purified) [2] = molecular target: B3; assay: ITC; MBP-tagged PupR CCSSD (220-235 μM) titrated into PupB NTSD (27.5-40 μM); 15 °C; 25 mM HEPES pH 7.5, 400 mM LiCl, 10% glycerol; global fit of three runs in SEDPHAT with a local incompetent fraction
PupB NTSD (purified) [3] = molecular target: B3; assay: as above; remark: listed apart in the source
[4] = molecular target: B2; assay: as above

How did the “stoichiometry N” value (PupB NTSD (purified) [1]) turn out when B1 was run?
Its value is 1.

What does the source list for B2?
stoichiometry N (PupB NTSD (purified) [2]): 1; dH (PupB NTSD (purified) [3]): -17.7 kcal/mol

With B3 as the binder, how does the Kd [4] read?
Its Kd is 690 nM.
